Results taken from patent US20240279344A1 (CDR LIFE, published 2024).

Molecular target: T1, HLA-A2/MAGE-A4 complex, recombinant (HLA-A*02:01 extracellular domain, human b2m, MAGE-A4 peptide 230-239 …) (human, UniProt P04439 25-299 at identity 0.94); P61769 21-119)
T1 construct: also called MAGE-A4 pMHC; MAGE-A4/HLA-A2 complex
Assay: SPR, monovalent

B1: M1171 (bispecific antibody, V domains shown)
VH: EVQLLESGGGSVQPGGSLRLSCTVSGFSLSNYAMSWVRQAPGKGLEWIGIVSSGGTTYYASWAKGRFTISKDTSKNTVYLQMNSLRAEDTASYYCAKDLYYGPTTYSALNLWGQGTSVTVSS
VL: SYELTQPPSVSVSPGQTASITCTADTLSRSYASWYQQKPGQSPVLVIYRDTSRPSGIPERFSGSNSGNTATLTISGTQAMDEADYYCATRPSSGSNFQLFGGGTKLTVL
notes: Variant of humanized M0763; tested in SPR as anti-CD3 Fab x anti-MAGE-A4 scFv bispecific
Kd: 4.4 nM

B2: M1310 (bispecific antibody, V domains shown)
VH: EVQLLESGGGSVQPGGSLRLSCTVSGFSLSNYAMSWVRQAPGKGLEWIGIVSSGGTTYYASWAKGRFTISKDTSKNTVYLQMNSLRAEDTASYYCAKDLYYGPNTDYSAANLWGQGTSVTVSS
VL: SYELTQPPSVSVSPGQTASITCTADTLSRSYASWYQQKPGQSPVLVIYRDTSRPSGIPERFSGSNSGNTATLTISGTQAMDEADYYCATRPSSGSNFQAFGGGTKLTVL
notes: as for B1
Kd: 0.35 nM

B3: M1301 (bispecific antibody, V domains shown)
VH: EVQLLESGGGSVQPGGSLRLSCTVSGFSLSNYAMSWVRQAPGKGLEWIGIVSSGGTTYYASWAKGRFTISKDTSKNTVYLQMNSLRAEDTASYYCAKDLYYGPTTYSAANLWGQGTSVTVSS
VL: SYELTQPPSVSVSPGQTASITCTADTLSRSYASWYQQKPGQSPVLVIYRDTSRPSGIPERFSGSNSGNTATLTISGTQAMDEADYYCATRDFSGSNFQLFGGGTKLTVL
notes: as for B1
Kd: 0.12 nM

B4: M1297 (bispecific antibody, V domains shown)
VH: EVQLLESGGGSVQPGGSLRLSCTVSGFSLSNYAMSWVRQAPGKGLEWIGIVSSGGTTYYASWAKGRFTISKDTSKNTVYLQMNSLRAEDTASYYCAKDLYYGPSTYFVANLWGQGTSVTVSS
VL: SYELTQPPSVSVSPGQTASITCTADTLSRSYASWYQQKPGQSPVLVIYRDTSRPSGIPERFSGSNSGNTATLTISGTQAMDEADYYCATRPSSGSNFQLFGGGTKLTVL
notes: as for B1
Kd: 0.09 nM

B5: M1253 (bispecific antibody, V domains shown)
VH: EVQLLESGGGSVQPGGSLRLSCTVSGFSLSNYAMSWVRQAPGKGLEWIGIVSSGGTTYYASWAKGRFTISKDTSKNTVYLQMNSLRAEDTASYYCAKDLYYGPTTYSAANLWGQGTSVTVSS
VL: SYELTQPPSVSVSPGQTASITCTADTLSRSYASWYQQKPGQSPVLVIYRDTSRPSGIPERFSGSNSGNTATLTISGTQAMDEADYYCATRPSSGSNFQAFGGGTKLTVL
notes: as for B1
Kd: 2.55 nM

B6: M1172 (bispecific antibody, V domains shown)
VH: EVQLLESGGGSVQPGGSLRLSCTVSGFSLSNYAMSWVRQAPGKGLEWIGIVSSGGTTYYASWAKGRFTISKDTSKNTVYLQMNSLRAEDTASYYCAKDLYYGPTTYSAPNLWGQGTSVTVSS
VL: SYELTQPPSVSVSPGQTASITCTADTLSRSYASWYQQKPGQSPVLVIYRDTSRPSGIPERFSGSNSGNTATLTISGTQAMDEADYYCATRPSSGSNFQLFGGGTKLTVL
notes: as for B1
Kd: 1.5 nM

B7: M1202 (bispecific antibody, V domains shown)
VH: EVQLLESGGGSVQPGGSLRLSCTVSGFSLSNYAMSWVRQAPGKGLEWIGIVSSGGTTYYASWAKGRFTISKDTSKNTVYLQMNSLRAEDTASYYCAKDLYYGPTTYSSANLWGQGTSVTVSS
VL: SYELTQPPSVSVSPGQTASITCTADTLSRSYASWYQQKPGQSPVLVIYRDTSRPSGIPERFSGSNSGNTATLTISGTQAMDEADYYCATRPSSGSNFQLFGGGTKLTVL
notes: as for B1
Kd: 3.9 nM

B8: M1300 (bispecific antibody, V domains shown)
VH: EVQLLESGGGSVQPGGSLRLSCTVSGFSLSNYAMSWVRQAPGKGLEWIGIVSSGGTTYYASWAKGRFTISKDTSKNTVYLQMNSLRAEDTASYYCAKDLYYGPTTYSAANLWGQGTSVTVSS
VL: SYELTQPPSVSVSPGQTASITCTADTLSRSYASWYQQKPGQSPVLVIYRDTSRPSGIPERFSGSNSGNTATLTISGTQAMDEADYYCATRLFSGSNFQLFGGGTKLTVL
notes: as for B1
Kd: 0.12 nM

B9: M1178 (bispecific antibody, V domains shown)
VH: EVQLLESGGGSVQPGGSLRLSCTVSGFSLSNYAMSWVRQAPGKGLEWIGIVSSGGTTYYASWAKGRFTISKDTSKNTVYLQMNSLRAEDTASYYCAKDLYYGPTTYSAANLWGQGTSVTVSS
VL: SYELTQPPSVSVSPGQTASITCTADTLSRSYASWYQQKPGQSPVLVIYRDTSRPSGIPERFSGSNSGNTATLTISGTQAMDEADYYCQARPSSGSNFQLFGGGTKLTVL
notes: as for B1
Kd: 8.3 nM

B10: M1302 (bispecific antibody, V domains shown)
VH: EVQLLESGGGSVQPGGSLRLSCTVSGFSLSNYAMSWVRQAPGKGLEWIGIVSSGGTTYYASWAKGRFTISKDTSKNTVYLQMNSLRAEDTASYYCAKDLYYGPNTDYSAANLWGQGTSVTVSS
VL: SYELTQPPSVSVSPGQTASITCTADTLSRSYASWYQQKPGQSPVLVIYRDTSRPSGIPERFSGSNSGNTATLTISGTQAMDEADYYCATRPSSGSNFQLFGGGTKLTVL
notes: as for B1
Kd: 0.6 nM

B11: M1298 (bispecific antibody, V domains shown)
VH: EVQLLESGGGSVQPGGSLRLSCTVSGFSLSNYAMSWVRQAPGKGLEWIGIVSSGGTTYYASWAKGRFTISKDTSKNTVYLQMNSLRAEDTASYYCAKDLYYGPTTYSAANLWGQGTSVTVSS
VL: SYELTQPPSVSVSPGQTASITCTADTLSRSYASWYQQKPGQSPVLVIYRDTSRPSGIPERFSGSNSGNTATLTISGTQAMDEADYYCATRPWPGSNFQLFGGGTKLTVL
notes: as for B1
Kd: 0.07 nM

B12: M1299 (bispecific antibody, V domains shown)
VH: EVQLLESGGGSVQPGGSLRLSCTVSGFSLSNYAMSWVRQAPGKGLEWIGIVSSGGTTYYASWAKGRFTISKDTSKNTVYLQMNSLRAEDTASYYCAKDLYYGPTTYSAANLWGQGTSVTVSS
VL: SYELTQPPSVSVSPGQTASITCTADTLSRSYASWYQQKPGQSPVLVIYRDTSRPSGIPERFSGSNSGNTATLTISGTQAMDEADYYCATRPFPGSNFQLFGGGTKLTVL
notes: as for B1
Kd: 0.05 nM

B13: M1177 (bispecific antibody, V domains shown)
VH: EVQLLESGGGSVQPGGSLRLSCTVSGFSLSNYAMSWVRQAPGKGLEWIGIVSSGGTTYYASWAKGRFTISKDTSKNTVYLQMNSLRAEDTASYYCAKDLYYGPTTYSAANLWGQGTSVTVSS
VL: SYELTQPPSVSVSPGQTASITCTADTLSRSYASWYQQKPGQSPVLVIYRDTSRPSGIPERFSGSNSGNTATLTISGTQAMDEADYYCATRPSSGSNTVVFGGGTKLTVL
notes: as for B1
Kd: 4.2 nM

B14: M1176 (bispecific antibody, V domains shown)
VH: EVQLLESGGGSVQPGGSLRLSCTVSGFSLSNYAMSWVRQAPGKGLEWIGIVSSGGTTYYASWAKGRFTISKDTSKNTVYLQMNSLRAEDTASYYCAKDLYYGPTTYSAANLWGQGTSVTVSS
VL: SYELTQPPSVSVSPGQTASITCTADTLSRSYASWYQQKPGQSPVLVIYRDTSRPSGIPERFSGSNSGNTATLTISGTQAMDEADYYCATRPSSGSVFQLFGGGTKLTVL
notes: as for B1
Kd: 6 nM

B15: M1309 (bispecific antibody, V domains shown)
VH: EVQLLESGGGSVQPGGSLRLSCTVSGFSLSNYAMSWVRQAPGKGLEWIGIVSSGGTTYYASWAKGRFTISKDTSKNTVYLQMNSLRAEDTASYYCAKDLYYGPSTYFVANLWGQGTSVTVSS
VL: SYELTQPPSVSVSPGQTASITCTADTLSRSYASWYQQKPGQSPVLVIYRDTSRPSGIPERFSGSNSGNTATLTISGTQAMDEADYYCATRPSSGSNFQAFGGGTKLTVL
notes: as for B1
Kd: 0.09 nM
